Earlier results in PMC11668491.

Molecular target: UBC2 (Saccharomyces cerevisiae) (UniProt P06104)
Sequence of UniProt P06104 (P06104 whole entry): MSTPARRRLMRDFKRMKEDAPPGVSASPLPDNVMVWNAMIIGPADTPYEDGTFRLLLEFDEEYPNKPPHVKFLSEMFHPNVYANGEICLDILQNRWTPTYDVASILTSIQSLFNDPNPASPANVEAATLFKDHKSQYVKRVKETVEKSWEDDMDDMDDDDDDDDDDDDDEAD

Kd: 0.14 µM
Substance: UBR1 U2BR (from UniProt P19812)
